Paper PMC12711917

Molecular target: 5-TAMRA-labeled human CaV1.2-IQ peptide (human)
Sequence (Q13936 1659-1692): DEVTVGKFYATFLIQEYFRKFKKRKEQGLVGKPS

“calmodulin, wild type (from UniProt P0DP23 1-149) (natural protein)” gave a f300 (calcium-dependent inactivation of the CaV1.2 channel; whole-cell voltage clamp of HEK293 cells co-transfected with human CaV1.2 α1C, β2a, α2δ and calmodulin) of 0.57.
